These results are taken from paper PMC4484599.

In this data set the target is Sp-1 human recombinant protein (Promega) (Homo sapiens, UniProt P08047 1-785). As to the kind of experiment: EMSA.
Sequence of Sp-1 human recombinant protein (Promega) (P08047 whole entry): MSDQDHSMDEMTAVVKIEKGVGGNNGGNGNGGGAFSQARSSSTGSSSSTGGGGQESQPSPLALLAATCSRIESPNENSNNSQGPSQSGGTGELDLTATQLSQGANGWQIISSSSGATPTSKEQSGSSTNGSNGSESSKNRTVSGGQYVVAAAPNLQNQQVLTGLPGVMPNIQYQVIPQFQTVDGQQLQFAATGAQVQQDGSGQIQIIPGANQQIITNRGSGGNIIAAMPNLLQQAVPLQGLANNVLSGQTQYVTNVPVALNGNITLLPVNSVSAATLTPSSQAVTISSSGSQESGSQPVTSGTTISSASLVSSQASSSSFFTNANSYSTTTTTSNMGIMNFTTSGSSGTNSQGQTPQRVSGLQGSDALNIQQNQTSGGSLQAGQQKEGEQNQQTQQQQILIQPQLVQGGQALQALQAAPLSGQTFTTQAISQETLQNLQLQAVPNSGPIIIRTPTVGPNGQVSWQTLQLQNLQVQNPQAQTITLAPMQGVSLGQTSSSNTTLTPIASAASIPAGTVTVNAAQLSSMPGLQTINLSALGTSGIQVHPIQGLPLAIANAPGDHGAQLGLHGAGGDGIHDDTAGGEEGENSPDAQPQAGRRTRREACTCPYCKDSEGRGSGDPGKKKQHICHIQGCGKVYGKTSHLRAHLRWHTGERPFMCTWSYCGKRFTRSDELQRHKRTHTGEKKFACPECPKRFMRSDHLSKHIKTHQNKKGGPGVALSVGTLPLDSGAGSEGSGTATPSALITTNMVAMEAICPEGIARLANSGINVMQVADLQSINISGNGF

B1: Sp-1 probe (ER alpha promoter) (dsDNA)
DNA 1: TCGTGCGCCCCCGCCCCCTGGCCGTG
DNA 2: CACGGCCAGGGGGCGGGGGCGCACGA
B1: the binding result was “binds”.
